Results from patent US20210116443A1 (CREATIVE PROTEIN SOLUTIONS, published 2021).

Legend:
[1] = molecular target: T1, HIS-TreAC-KI: N-terminally HIS-tagged fragment of TreA with C-terminal fusion leucine zipper (Escherichia coli O9:H4 (strain HS), UniProt A7ZZD1 97-565); assay: split trehalase complementation, non-complementary zippers Ki+Ki (FIG. 24A)
T1 sequence: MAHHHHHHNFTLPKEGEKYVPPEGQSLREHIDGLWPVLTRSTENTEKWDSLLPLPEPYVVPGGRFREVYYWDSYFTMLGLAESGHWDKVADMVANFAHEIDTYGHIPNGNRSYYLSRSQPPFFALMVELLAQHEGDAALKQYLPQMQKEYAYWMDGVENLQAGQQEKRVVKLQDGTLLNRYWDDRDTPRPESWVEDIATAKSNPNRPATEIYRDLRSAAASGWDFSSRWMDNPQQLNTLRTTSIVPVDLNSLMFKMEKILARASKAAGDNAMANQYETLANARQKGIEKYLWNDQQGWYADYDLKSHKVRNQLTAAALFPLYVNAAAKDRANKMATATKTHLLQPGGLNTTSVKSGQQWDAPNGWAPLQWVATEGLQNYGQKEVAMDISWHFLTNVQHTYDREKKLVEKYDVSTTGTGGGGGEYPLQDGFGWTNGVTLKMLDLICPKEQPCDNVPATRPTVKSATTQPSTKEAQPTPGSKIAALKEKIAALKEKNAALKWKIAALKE

[2] = molecular target: T2, HIS-TreAC-EI: N-terminally HIS-tagged fragment of TreA with C-terminal fusion leucine zipper (Escherichia coli O9:H4 (strain HS), UniProt A7ZZD1 97-565); assay: split trehalase complementation, non-complementary zippers Ei+Ei (FIG. 24A)
T2 sequence: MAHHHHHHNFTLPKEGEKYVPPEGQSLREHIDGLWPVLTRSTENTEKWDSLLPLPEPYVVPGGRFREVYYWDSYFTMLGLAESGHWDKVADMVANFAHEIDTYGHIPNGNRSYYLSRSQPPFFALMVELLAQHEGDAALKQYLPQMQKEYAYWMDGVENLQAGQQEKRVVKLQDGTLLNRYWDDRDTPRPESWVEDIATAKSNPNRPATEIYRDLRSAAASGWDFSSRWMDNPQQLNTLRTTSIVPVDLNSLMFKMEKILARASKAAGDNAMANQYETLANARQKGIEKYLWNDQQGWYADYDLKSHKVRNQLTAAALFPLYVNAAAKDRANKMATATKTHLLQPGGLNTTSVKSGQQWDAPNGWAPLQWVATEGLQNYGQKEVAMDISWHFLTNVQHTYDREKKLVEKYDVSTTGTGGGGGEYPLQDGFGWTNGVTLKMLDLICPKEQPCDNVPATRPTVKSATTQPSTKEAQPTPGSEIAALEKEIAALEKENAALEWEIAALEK

[3] = molecular target: T1, HIS-TreAC-KI: N-terminally HIS-tagged …; assay: cell-based or functional assay
[4] = molecular target: T3, TreAC-HIS: C-terminally HIS-tagged C-terminal fragment of TreA (Escherichia coli O9:H4 (strain HS), UniProt A7ZZD1 96-565); assay: split trehalase complementation, 24 h with trehalose, Benedict's reagent (FIG. 7)
T3 construct: Split E. coli trehalase fragment; also called HIS-tagged TreA^C
T3 sequence: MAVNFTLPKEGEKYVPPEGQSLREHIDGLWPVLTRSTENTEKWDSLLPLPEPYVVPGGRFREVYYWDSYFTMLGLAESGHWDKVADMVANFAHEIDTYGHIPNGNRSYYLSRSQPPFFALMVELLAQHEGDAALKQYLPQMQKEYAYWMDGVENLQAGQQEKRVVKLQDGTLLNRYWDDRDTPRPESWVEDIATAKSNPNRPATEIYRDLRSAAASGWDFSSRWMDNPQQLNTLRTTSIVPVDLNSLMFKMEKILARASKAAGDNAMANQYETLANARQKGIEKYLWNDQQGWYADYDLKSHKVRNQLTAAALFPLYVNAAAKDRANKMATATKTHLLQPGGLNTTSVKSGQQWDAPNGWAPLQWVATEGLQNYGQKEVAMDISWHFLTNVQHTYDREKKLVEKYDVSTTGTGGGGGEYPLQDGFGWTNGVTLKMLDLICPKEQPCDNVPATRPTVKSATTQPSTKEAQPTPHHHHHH

[5] = molecular target: T4, HIS-TreAC: N-terminally HIS-tagged C-terminal fragment of TreA (Escherichia coli O9:H4 (strain HS), UniProt A7ZZD1 97-565); assay: as above
T4 construct: Split E. coli trehalase fragment; also called HIS-tagged TreA^C
T4 sequence: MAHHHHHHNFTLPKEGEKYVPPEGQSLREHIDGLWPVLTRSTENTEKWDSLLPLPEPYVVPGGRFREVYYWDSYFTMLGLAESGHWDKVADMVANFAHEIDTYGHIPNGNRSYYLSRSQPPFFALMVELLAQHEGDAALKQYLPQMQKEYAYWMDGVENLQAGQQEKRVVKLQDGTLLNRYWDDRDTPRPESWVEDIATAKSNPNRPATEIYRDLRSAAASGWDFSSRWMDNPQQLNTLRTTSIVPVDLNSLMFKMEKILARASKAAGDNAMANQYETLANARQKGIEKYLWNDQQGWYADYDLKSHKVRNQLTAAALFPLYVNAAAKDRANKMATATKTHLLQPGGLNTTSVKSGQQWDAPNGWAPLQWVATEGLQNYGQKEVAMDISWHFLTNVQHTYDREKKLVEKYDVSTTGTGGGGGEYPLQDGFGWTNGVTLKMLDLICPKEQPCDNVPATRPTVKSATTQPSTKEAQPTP

[6] = molecular target: HIS-TreA^N-bCalm: N-terminally HIS-tagged N-terminal fragment of TreA^N with C-terminal fusion of bovine …; assay: split trehalase complementation with Ca2+, glucose read-out

B1: HIS-TreAN-KI: N-terminally HIS-tagged N-terminal fragment of TreA with C-terminal fusion with leucine zipper (other)
chain: MAHHHHHHEETPVTPQPPDILLGPLFNDVQNAKLFPDQKTFADAVPNSDPLMILADYRMQQNQSGFDLRHFVNVNFTLPKEGEKYVPGSVPGSKIAALKEKIAALKEKNAALKWKIAALKE
binding result [1]: no binding

B2: HIS-TreAN-EI: N-terminally HIS-tagged N-terminal fragment of TreA with C-terminal fusion with leucine zipper (other)
chain: MAHHHHHHEETPVTPQPPDILLGPLFNDVQNAKLFPDQKTFADAVPNSDPLMILADYRMQQNQSGFDLRHFVNVNFTLPKEGEKYVPGSVPGSEIAALEKEIAALEKENAALEWEIAALEK
binding result [2]: no binding
glucose signal over 3 h, lyophilized fusions resuspended in acidified bovine blood or milk (glucose strips) [3]: 2 fold

B3: TreAN-HIS: C-terminally HIS-tagged N-terminal fragment of TreA (w/o signal peptide) (other)
chain: MEETPVTPQPPDILLGPLFNDVQNAKLFPDQKTFADAVPNSDPLMILADYRMQQNQSGFDLRHFVNVNFTLPKEGEKYVPHHHHHH
notes: Split E. coli trehalase fragment; also called HIS-tagged TreA^N
binding result [4]: no binding
binding result [5]: no binding

B4: CaMKIIp-TreA^C-HIS: CaMKII peptide N-terminally fused to the C-terminally HIS-tagged C-terminal fragment of TreA (other)
chain: MARRKLKGAILTTMLATRNFVDNFTLPKEGEKYVPPEGQSLREHIDGLWPVLTRSTENTEKWDSLLPLPEPYVVPGGRFREVYYWDSYFTMLGLAESGHWDKVADMVANFAHEIDTYGHIPNGNRSYYLSRSQPPFFALMVELLAQHEGDAALKQYLPQMQKEYAYWMDGVENLQAGQQEKRVVKLQDGTLLNRYWDDRDTPRPESWVEDIATAKSNPNRPATEIYRDLRSAAASGWDFSSRWMDNPQQLNTLRTTSIVPVDLNSLMFKMEKILARASKAAGDNAMANQYETLANARQKGIEKYLWNDQQGWYADYDLKSHKVRNQLTAAALFPLYVNAAAKDRANKMATATKTHLLQPGGLNTTSVKSGQQWDAPNGWAPLQWVATEGLQNYGQKEVAMDISWHFLTNVQHTYDREKKLVEKYDVSTTGTGGGGGEYPLQDGFGWTNGVTLKMLDLICPKEQPCDNVPATRPTVKSATTQPSTKEAQPTPHHHHHH
notes: also called MaMKII peptide fused to C-terminal fragment of TreA
binding result [6]: binds
